# Reference: patent US20210032351A1 (XDCEXPLORER SHANGHAI, published 2021)
# Numbering of substitutions follows the chain as printed. Where “and” joins values, the source holds several entries; their conditions need not be identical. Equal entries are not always repeated. Ends that are not written are not given here. * marks the point of attachment. Biotin = O=C1N[C@H]2[C@H](CS[C@H]2CCCCC(=O)*)N1
# T1: pep05 (cysteine pairing not given here)
# T1 peptide: KGNYVVTDHGSCVRACK(Biotin)
# T2: pep15 (cysteine pairing not given here)
# T2 peptide: SCVRACGADSYEMEEDK(Biotin)
# T3: pep14 (cysteine pairing not given here)
# T3 peptide: GSCVRACGADSYEMEEK(Biotin)
# T4: pep19
# T4 sequence (peptide, C-terminal K(Biotin)): ACGADSYEMEEDGVRKK
# T5: pep11 (cysteine pairing not given here)
# T5 peptide: TDHGSCVRACGADSYEK(Biotin)
# T6: pep18
# T6 peptide: RACGADSYEMEEDGVRK(Biotin)
# T7: pep32 (cysteine pairing not given here)
# T7 peptide: VRKCKKCEGPCRKVCNK(Biotin)
# T8: pep34 (cysteine pairing not given here)
# T8 peptide: KCKKCEGPCRKVCNGIK(Biotin)
# T9: pep33 (cysteine pairing not given here)
# T9 peptide: RKCKKCEGPCRKVCNGK(Biotin)
# T10: pep35 (cysteine pairing not given here)
# T10 peptide: CKKCEGPCRKVCNGIGK(Biotin)
# T11: pep23 (cysteine pairing not given here)
# T11 peptide: DSYEMEEDGVRKCKKCK(Biotin)
# T12: pep28 (cysteine pairing not given here)
# T12 peptide: EEDGVRKCKKCEGPCRK(Biotin)
# T13: pep08 (cysteine pairing not given here)
# T13 peptide: YVVTDHGSCVRACGADK(Biotin)
# T14: pep31 (cysteine pairing not given here)
# T14 peptide: GVRKCKKCEGPCRKVCK(Biotin)
# T15: pep17
# T15 peptide: VRACGADSYEMEEDGVK(Biotin)
# T16: pep16 (cysteine pairing not given here)
# T16 peptide: CVRACGADSYEMEEDGK(Biotin)
# T17: pep02
# T17 peptide: EEKKGNYVVTDHGSCVK(Biotin)
# T18: pep24 (cysteine pairing not given here)
# T18 peptide: SYEMEEDGVRKCKKCEK(Biotin)
# B1: Chimeric antibody 63A10 (antibody, V domains shown)
# VH: QVQLQQSGAELARPGASVKMSCKASGYTFISFTMHWVKQRPGQGLEWIGYINPNSGYTKYNQKFKDKATLTAGQSSSTAYMQLSSLTSEDSAVYYCTRGGGRGFAYWGQGTLVTVSA
# VL: DILMTQSPSSMSVSLGDTVTITCHASQDINSNIGWLQQKPGKSFKALIYHGTNLEDGVPSRFSGSGSGADYSLTISSLESEDFADYYCVQYAQFPFTFGSGTKLEIK
# B2: Murine anti-43H6 (antibody, V domains shown)
# VH: INAEYAGGPGLVKPSQSLSLTCTVTDYSITSDYAWNWIRQFPGNKLEWMGYISYSGNTNYNPSLKSRISITRDTSKNQFFLQLNSVTTEDTATYYCARLGRGFAYWGQGTLVTVSA
# VL: B1 VL with T20S, K42T, A46G, T52R, A69E, Q93H, F96P, S100A, I106L
# notes: murine hybridoma antibody; also called 43H6A1
# B3: c75G7C6-4 (antibody, human IgG1, V domains shown)
# VH: EVQLQQSGPELVKPGASVKIPCKASGYTFTDYNMDWVKQSHGKSLEWIGDINPNNGDTIYNQKFKGKATLTVDKSSSTAYMELRSLTSEDTAVYYCARGDYSGYYPVYYAMDYWGQGTSVTVSS
# VL: ENVLTQSPAIMSASPGEKVTMTCRASSSVSSSYLHWYQQKSGASPKLWIFSTSNLAAGVPARFSGSGSGTSYSLTVSSVEAEDAATYYCQQYSGYPLTFGAGTKLELK
# notes: chimeric, human IgG1 / kappa; DG of heavy chain CDR3 mutated to SG; also called DG/SG mutant
# B4: Chimeric antibody 75G7 (antibody, V domains shown)
# VH: B3 VH with S102D
# VL: B3 VL
# notes: also called c75G7C6
# Tests used:
# [1] = biological target: human EGFRvIII protein, full length, on transfected cells (human) (UniProt P00533); assay: FACS, U87MG-hEGFRvIII 1D1 cells
# [2] = biological target: human EGFRvIII protein, full length, on transfected cells (human) (UniProt P00533); assay: FACS, CHO-K1-hEGFRvIII 1E10 cells
# [3] = biological target: human EGFRvIII protein, full length, on transfected cells (human) (UniProt P00533); assay: FACS, U87MG-hEGFRvIII 2C6 cells
# [4] = biological target: human EGFRvIII protein, full length, on transfected cells (human) (UniProt P00533); assay: FACS, 293F-hEGFRvIII 1D11 cells
# [5] = biological target: human EGFRvIII protein, full length, on transfected cells (human) (UniProt P00533); assay: FACS, 293F-hEGFRvIII 1F3 cells
# [6] = biological target: human EGFRvIII protein, full length, on transfected cells (human) (UniProt P00533); assay: FACS, CHO-K1-hEGFRvIII 2D11 cells
# [7] = biological target: human EGFRvIII protein, full length, on transfected cells (human) (UniProt P00533); assay: FACS, CHO-K1-hEGFRvIII 1G10 cells
# [8] = biological target: human EGFRvIII protein, full length, on transfected cells (human) (UniProt P00533); assay: FACS, CHO-K1-hEGFRvIII 1E3 cells
# [9] = biological target: human EGFRvIII protein, full length, on transfected cells (human) (UniProt P00533); assay: FACS, U87MG-hEGFRvIII 2G2 cells
# [10] = biological target: human EGFRvIII protein, full length, on transfected cells (human) (UniProt P00533); assay: FACS, U87MG-hEGFRvIII 1B3 cells
# [11] = biological target: human EGFRvIII protein, full length, on transfected cells (human) (UniProt P00533); assay: FACS, U87MG-hEGFRvIII 1F9 cells
# [12] = biological target: human EGFRvIII protein, full length, on transfected cells (human) (UniProt P00533); assay: FACS, U87MG-hEGFRvIII 2C3 cells
# [13] = biological target: human EGFRvIII protein, full length, on transfected cells (human) (UniProt P00533); assay: FACS, CHO-K1-hEGFRvIII 2B3 cells
# [14] = biological target: human EGFRvIII protein, full length, on transfected cells (human) (UniProt P00533); assay: FACS, CHO-K1-hEGFRvIII 1D9 cells
# [15] = biological target: human EGFRvIII protein, full length, on transfected cells (human) (UniProt P00533); assay: FACS, 293F-hEGFRvIII 1C10 cells
# [16] = biological target: wild-type EGFR protein on the surfaces of A431 tumor cells and normal human primary hepatocytes (human) (UniProt P00533); assay: FACS, normal human primary hepatocytes
# [17] = biological target: wild-type EGFR protein on the surfaces of A431 tumor cells and normal human primary hepatocytes (human) (UniProt P00533); assay: FACS, A431 tumor cells
# pep05 = biological target: T1, pep05; assay: peptide dot matrix ELISA
# pep15 = biological target: T2, pep15; assay: peptide dot matrix ELISA
# pep14 = biological target: T3, pep14; assay: peptide dot matrix ELISA
# pep19 = biological target: T4, pep19; assay: peptide dot matrix ELISA
# [18] = biological target: T19, human EGFRvIII-hFc protein (human, UniProt P00533 25-645); assay: ELISA, coated EGFRvIII-hFc, antibody 100 nM
# T19 construct: extracellular domain; made in HEK293 cells, purified on protein A; also called immunogen A; hFc-tagged EGFRvIII protein; not shown: human IgG Fc fragment (hFc) of the pCpC vector
# How it was run: (§1)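 Direct ELISA against immobilized EGFRvIII-hFc (1.0 μg/mL coating). Antibody incubated 2 h at 37° C, detected with HRP secondary and TMB; absorbance at 450 nm.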
# [19] = biological target: T19, human EGFRvIII-hFc protein; assay: ELISA, plate coated with human EGFRvIII-hFc, HRP secondary antibody, absorbance at 450 nm
# Experimental: The purified immunogen A (EGFRvIII-hFc) obtained in example 1 (for the preparation method, see step (I) in example 1) is diluted with PBS to a final concentration of 1.0 μg/mL, and then added to a 96-well ELISA plate at 100 μl/well. The plate is sealed with a plastic film and incubated at 4° C. overnight. The next day, the plate is washed twice with a plate washing solution [PBS+0.01% (v/v) Tween20], and added with a blocking solution [PBS+0.01% (v/v) Tween20+1% (w/w) BSA] for blocking 2 hours at room temperature. The blocking solution is discarded, and the purified EGFRvIII antibody obtained in example 2 is added at 100 μl/well. The plate is incubated for 2 hours at 37° C., and then washed 3 times with the plate washing solution [PBS+0.01% (v/v) Tween20]. The plate is added with an HRP (horseradish peroxidase) labeled secondary antibody (purchased from Sigma), incubated at 37° C. for 2 hours, and then washed 3 times with the plate washing solution [PBS+0.01% (v/v) Tween20]. The plate is added with 100 μl of TMB substrate/well, incubated for 30 minutes at room temperature, and then added with 100 μl of stopping solution (1.0N HCl)/well. A450 nm value is read using an ELISA plate reader (SpectraMax 384plus, purchased from Molecular Device), and the results are shown in FIG. 6 and table 10.
# [20] = biological target: T19, human EGFRvIII-hFc protein; assay: ELISA, coated EGFRvIII-hFc, antibody 10 nM
# How it was run: as §1
# [21] = biological target: T19, human EGFRvIII-hFc protein; assay: ELISA, coated EGFRvIII-hFc, antibody 0.01 nM
# How it was run: as §1
# [22] = biological target: T19, human EGFRvIII-hFc protein; assay: ELISA, coated EGFRvIII-hFc, antibody 0.1 nM
# How it was run: as §1
# [23] = biological target: T19, human EGFRvIII-hFc protein; assay: ELISA, coated EGFRvIII-hFc, antibody 1 nM
# How it was run: as §1
# [24] = biological target: T19, human EGFRvIII-hFc protein; assay: ELISA, coated EGFRvIII-hFc, antibody 0.001 nM
# How it was run: as §1
# [25] = biological target: T19, human EGFRvIII-hFc protein; assay: ELISA, coated EGFRvIII-hFc, antibody 0.0001 nM
# How it was run: as §1
# [26] = biological target: T20, human EGFRvIII protein, full length, on transfected cells (human, UniProt P00533 25-1210); assay: FACS on CHOK-EGFRvIII cells
# T20 construct: whole, on cells; stably transfected CHO-K1, U87MG and HEK293(F) cells; also called hEGFRvIII; mutant EGFRvIII protein
# pep11 = biological target: T5, pep11; assay: peptide dot matrix ELISA
# pep18 = biological target: T6, pep18; assay: peptide dot matrix ELISA
# pep32 = biological target: T7, pep32; assay: peptide dot matrix ELISA
# pep34 = biological target: T8, pep34; assay: peptide dot matrix ELISA
# pep33 = biological target: T9, pep33; assay: peptide dot matrix ELISA
# pep35 = biological target: T10, pep35; assay: peptide dot matrix ELISA
# pep23 = biological target: T11, pep23; assay: peptide dot matrix ELISA
# pep28 = biological target: T12, pep28; assay: peptide dot matrix ELISA
# pep08 = biological target: T13, pep08; assay: peptide dot matrix ELISA
# pep31 = biological target: T14, pep31; assay: peptide dot matrix ELISA
# pep17 = biological target: T15, pep17; assay: peptide dot matrix ELISA
# pep16 = biological target: T16, pep16; assay: peptide dot matrix ELISA
# pep02 = biological target: T17, pep02; assay: peptide dot matrix ELISA
# pep24 = biological target: T18, pep24; assay: peptide dot matrix ELISA
molecule,measurement,setting,value
"known EGFRvIII antibody (purchased from Absoluteantibody, #Ab00184-1.1)",cell mean fluorescence intensity,[1],96.4
same,cell mean fluorescence intensity,[2],92
same,cell mean fluorescence intensity,[3],178
same,cell mean fluorescence intensity,[4],388
same,cell mean fluorescence intensity,[5],395
same,cell mean fluorescence intensity,[6],77
same,cell mean fluorescence intensity,[7],563
same,cell mean fluorescence intensity,[8],42
same,cell mean fluorescence intensity,[9],182
same,cell mean fluorescence intensity,[10],66.9
same,cell mean fluorescence intensity,[11],68
same,cell mean fluorescence intensity,[12],82.7
same,cell mean fluorescence intensity,[13],109
same,cell mean fluorescence intensity,[14],457
same,cell mean fluorescence intensity,[15],458
IgG subtype control (antibody),cell mean fluorescence intensity,[1],3
same,cell mean fluorescence intensity,[3],1.8
same,cell mean fluorescence intensity,[4],3.6
same,cell mean fluorescence intensity,[5],4.1
same,cell mean fluorescence intensity,[6],1.8
same,cell mean fluorescence intensity,[7],2.4
same,cell mean fluorescence intensity,[8],2.4
same,cell mean fluorescence intensity,[9],1.8
same,cell mean fluorescence intensity,[10],2.3
same,cell mean fluorescence intensity,[11],1.7
same,cell mean fluorescence intensity,[15],4.3
Negative control hIgG (antibody),mean fluorescence intensity (MFI),[16],219 MFI
same,mean fluorescence intensity (MFI),[17],388 MFI
B1,ELISA signal,pep05,0.15 and 0.17
same,ELISA signal,pep15,0.14 and 0.11
same,ELISA signal,pep14,0.08 and 0.23
same,ELISA signal,pep19,0.11 and 0.15
B2,OD450 nm,[18],3.85
same,EC50 (read off the curve),[19],~0.02 nM
same,OD450 nm,[20],3.87
same,OD450 nm,[21],0.25
same,OD450 nm,[22],1.39
same,OD450 nm,[23],3.86
same,OD450 nm,[24],0.11
same,OD450 nm,[25],0.09
B3,fold decrease in binding ability compared to the wild-type chimeric antibody c75G7C6,[26],2.5 fold
B4,ELISA signal,pep11,0.08
same,ELISA signal,pep18,0.05
same,ELISA signal,pep32,0.06
same,ELISA signal,pep34,0.06
same,ELISA signal,pep33,0.07
same,ELISA signal,pep35,0.07
same,ELISA signal,pep23,0.05
same,ELISA signal,pep28,0.06
same,ELISA signal,pep08,0.05
same,ELISA signal,pep31,0.06
same,ELISA signal,pep17,0.05
same,ELISA signal,pep16,0.05
same,ELISA signal,pep02,0.05
same,ELISA signal,pep24,0.05
